Measured values published in article PMC6297244, “Synthesis and Kinetic evaluation of an azido analogue of methylerythritol phosphate: a Novel Inhibitor of E. coli YgbP/IspD” (Scientific Reports, 2018).

Tests used:
[1] = substrate: C[C@](O)(CO)[C@H](O)COP(=O)(O)O; assay: Michaelis-Menten and bi-substrate steady-state kinetics (apparent Km), malachite green assay; assay type: biochemical, Escherichia coli; details: Mg2+ ([…] MgCl2 in assay); CTP as co-substrate sequential mechanism; ternary complex with CTP
[2] = substrate: Nc1ccn([C@@H]2O[C@H](COP(=O)(O)OP(=O)(O)OP(=O)(O)O)[C@@H](O)[C@H]2O)c(=O)n1; assay: as above; assay type: biochemical, Escherichia coli; details: Mg2+ ([…] MgCl2 in assay); MEP as co-substrate CTP-binding pocket; sequential mechanism

B1: YgbP/IspD (Escherichia coli K-12) (protein)
chain: ATTHLDVCAVVPAAGFGRRMQTECPKQYLSIGNQTILEHSVHALLAHPRVKRVVIAISPGDSRFAQLPLANHPQITVVDGGDERADSVLAGLKAAGDAQWVLVHDAARPCLHQDDLARLLALSETSRTGGILAAPVRDTMKRAEPGKNAIAHTVDRNGLWHALTPQFFPRELLHDCLTRALNEGATITDEASALEYCGFHPQLVEGRADNIKVTRPEDLALAEFYLTRTIHQENT
For B1, the Km [1] was 40 ± 7 µM and the Km [2] was 84 ± 9 µM.
